B1: XCL1-OVA vaccibodies: homodimeric chimeric protein of XCL1 chemokine, dimerization unit of hinge and CH3 domain of human IgG3, and OVA antigen moiety (protein)
chain: VGTEVLEESSCVNLQTQRLPVQKIKTYIIWEGAMRAVIFVTKRGLKICADPEAKWVKAAIKTVDGRASTRKNMAETVPTGAQRSTSTAITLTGELKTPLGDTTHTCPRCPEPKSCDTPPPCPRCPEPKSCDTPPPCPRCPEPKSCDTPPPCPRCPAPELLGGPSVFLFPPKPKDTLMISRTPEVTCVVVDVSHEDPEVQFKWYVDGVEVHNAKTKPREEQYNSTFRVVSVLTVLHQDWLNGKEYKCKVSNKALPAPIEKTISKTKGQPREPQVYTLPPSREEMTKNQVSLTCLVKGFYPSDIAVEWESSGQPENNYNTTPPMLDSDGSFFLYSKLTVDKSRWQQGNIFSCSVMHEALHNRFTQKSLSLSPGKGSIGAASMEFCFDVFKELKVHHANENIFYCPIAIMSALAMVYLGAKDSTRTQINKVVRFDKLPGFGDSIEAQCGTSVNVHSSLRDILNQITKPNDVYSFSLASRLYAEERYPILPEYLQCVKELYRGGLEPINFQTAADQARELINSWVESQTNGIIRNVLQPSSVDSQTAMVLVNAIVFKGLWEKAFKDEDTQAMPFRVTEQESKPVQMMYQIGLFRVASMASEKMKILELPFASGTMSMLVLLPDEVSGLEQLESIINFEKLTEWTSSNVMEERKIKVYLPRMKMEEKYNLTSVLMAMGITDVFSSSANLSGISSAESLKISQAVHAAHAEINEAGREVVGSAEAGVDAASVSEEFRADHPFLFCIKHIATNAVLFFGRCVSP

How the values were obtained:
[1] = system: B16-OVA melanoma; experiment: B16-OVA melanoma tumor model; format: in vivo, mouse; conditions: for tumor growth, therapeutic setting: B6 mice, immunized 3 days after s.c. inoculation, monitored 16 days after inoculation, vs OVA and PBS groups
Experimental: B Cohort of mice treated as specified in A with 20 μl of PBS containing OVA (low dose: 1.5 μg or high dose: 3.1 μg), or XCL1-OVA vaccibodies (low dose 2.5 μg or high dose 5.0 μg) were analyzed for tumor volume. Control mice were treated with 20 μl of PBS. Tumor volume is shown for each individual mouse and the mean (horizontal bar) is indicated for each condition.***, p<0.001; **, p<0.01; *, p<0.05 and NS: non significant.
C Time line of the prophylactic setting involving laser-assisted, dermal delivery of 20 μl of PBS containing OVA (1.5 μg) or XCL1-OVA vaccibodies (2.5 μg), subcutaneaous inoculation of the B16-OVA melanoma, and tumor volume measurement.
The B16-OVA melanoma is not rejected by immune-competent syngeneic B6 mice, unless mice have been subjected to prophylactic or therapeutic immunization. To evaluate the capacity of laser-assisted, intradermal delivery of XCL1-OVA vaccibodies to inhibit the growth of B16-OVA tumors, B6 mice were subcutaneously inoculated in the flank with B16-OVA cells (FIG. 4A). Three days later, the ear of the mice was subjected to laser-assisted, dermal delivery of XCL1-OVA vaccibodies and tumor growth was monitored 16 days after inoculation. For the sake of comparison, mice received equimolar amounts of free OVA or PBS. […] To investigate the prophylactic effects on tumor growth of laser-assisted intradermal XCL1-OVA immunization, B6 mice were immunized with XCL1-OVA vaccibodies and subcutaneously inoculated with B16-OVA tumor cells 30 days later (FIG. 4C).
(§1) Mice were injected subcutaneously (s.c.) into the flank with 10^5 B16-OVA or B16 melanoma cells (Brown et al, 2001). Tumor size was assessed 14 to 16 days later using a caliper. The presence of T cells infiltrating the tumor was assessed after enzymatic treatment of tumor mass with collagenase 2 (Worthington) and Percoll gradient (Amersham-Pharmacia).

[2] = system: tumor infiltrating CD8+ and CD4+ T cells; experiment: Intracellular IFNgamma and tetramer staining of tumor-infiltrating T cells; format: in vivo, mouse; conditions: day 11 after immunization, PMA and ionomycin restimulation
Experimental: D B6 mice were subcutaneously inoculated with B16-OVA or B16 and immunized 3 days later with 20 μl of PBS containing OVA (1.5 μg) or XCL1-OVA (2.5 μg) vaccibodies using laser-assisted, dermal delivery. On day 11 after immunization, the tumor mass of each mouse was excised and the percentage of […] cells determined among tumor infiltrating CD8^+ and CD4^+ T cells. Data are shown for each individual mouse and the mean (horizontal bar) is indicated for each condition. **, p<0.01; *, p<0.05 and NS for non significant.
A, B, C Mice were immunized as in FIG. 4C. […]
To assess whether the reduction in melanoma tumor growth observed upon treatment with XCL1-OVA vaccibodies was associated with the induction of endogeneous, antigen-specific CD8^+ T cells, wild-type and Xcr1^−/− mice were immunized via laser-assisted intradermal delivery of XCL1-OVA vaccibodies. Six days after immunization, the magnitude of OVA-specific T cell cytotoxicity was measured using an in vivo cytotoxic assay (FIG. 5 C). […]
as §1, with “(Amersham-Pharmacia). […]” for “(Amersham-Pharmacia).”

[3] = system: OT-I CD8+ and OT-II CD4+ T cells; experiment: Proliferation of adoptively transferred CTV-labeled OT-I and OT-II T cells after laser-assisted dermal antigen delivery; format: in vivo, mouse
Experimental: B Single-cell suspension were prepared from ear-draining, auricular LNs from B6 mice that received OT-I and OT-II T cells and were immunized by applying on laser-microporated ear 20 μl of PBS containing OVA (3.1 μg), XCL1-OVA vaccibodies (5 μg), XCL1 (1.8 μg) plus OVA (3.1 μg), or PBS alone as a control. CTV dilution of OT-I and OT-II T cells was measured 72 h after antigen delivery. Numbers in histograms indicate the percentage of divided T cells (n=3).
To test whether targeting XCR1^+ dermal DCs with antigen-loaded XCL1-based vaccibodies induced the activation of antigen-specific T cells in vivo, the model antigen OVA was inserted into XCL1-based vaccibodies. Mice were adoptively transferred with CellTraceViolet (CTV)-labeled, OT-I CD8^+ T cells, which express a T cell receptor (TCR) specific for SIINFEKL, an ovalbumin (OVA) peptide presented by H-2K^b, and OT-II CD4^+ T cells, which express a TCR specific for an OVA peptide presented by H2-A^b. One day later, the ear of the mice were subjected to laser-assisted microporation and topical application of XCL1-OVA vaccibodies. To compare the potency of the XCL1-OVA formulation with that of free OVA, mice were also treated with concentrations of OVA equimolar to that present in XCL1-OVA vaccibodies. Three days after immunisation, single-cell suspensions were prepared from ear-draining auricular lymph nodes (LNs) and the extent of OT-I and OT-II cell proliferation was determined by CTV dilution (FIG. 3A).
A P.L.E.A.S.E. portable laser developed by Pantec Biosolutions AG (Bach et al, 2012) was used with the following setting: fluence: 11.9 J/cm^2, pulse duration: 75 μs; RepRate: 200 Hz; pulses per pore: 2, pore array size: 14 mm^2 and pore density 8%. P.L.E.A.S.E.-assisted skin microporation was performed on the ear of anesthetized mice. 20 μl of sterile PBS, 20 μl of sterile PBS containing 1.5 μg (low) or 3.1 μg (high) OVA, or 20 μl of sterile PBS containing 2.5 μg (low) or 5 μg (high) XCL1-OVA were then evenly applied on the microporated ear surface. The PBS solution percolated inside the micropores in less than 10 minutes.
OT-I and OT-II T cells were isolated from pooled LNs and spleen of OT-I or OT-II mice kept on a Rag-2^−/−-B6 [CD45.1] background using CD8^+ and CD4^+ T cell negative isolation kits (Dynal, Invitrogen), respectively. Purity was determined by staining with CD4, CD8, CD5 and TCR Vα2. For CTV labeling, purified OT-I and OT-II T cells were resuspended in PBS containing 2.5 mM cell trace violet (CTV) (Molecular Probes) for 3 min at room temperature. 10^6 CTV-labeled OT-I and OT-II T cells were adoptively transferred into the specified mice. At the indicated times, single-cell suspensions were prepared from the auricular LNs draining the immunized ears and OT-I and OT-II T cells were analyzed by FACS.

[4] = system: B16 melanoma; experiment: B16 melanoma tumor model; format: in vivo, mouse; conditions: B6 mice immunized 3 days after inoculation, day 11 after immunization
Experimental: A B6 mice were subcutaneously inoculated with B16-OVA or B16 melanoma, and immunized 3 days later with XCL1-OVA vaccibodies using laser-assisted, dermal delivery. On day 11 after immunization, the volume of the tumor developing in each mouse was determined. Data are shown for each individual mouse and the mean (horizontal bar) is indicated for each condition. **, p<0.01.
The B16-OVA melanoma is not rejected by immune-competent syngeneic B6 mice, unless mice have been subjected to prophylactic or therapeutic immunization. To evaluate the capacity of laser-assisted, intradermal delivery of XCL1-OVA vaccibodies to inhibit the growth of B16-OVA tumors, B6 mice were subcutaneously inoculated in the flank with B16-OVA cells (FIG. 4A). Three days later, the ear of the mice was subjected to laser-assisted, dermal delivery of XCL1-OVA vaccibodies and tumor growth was monitored 16 days after inoculation. For the sake of comparison, mice received equimolar amounts of free OVA or PBS. […]
as §1

[5] = system: SIINFEKL peptide-pulsed splenocytes; experiment: In vivo cytotoxicity assay; design: species or system mouse
Experimental: C B6 (WT) and Xcr1^−/− mice were subjected to laser-assisted, dermal delivery of 20 μl of PBS containing OVA (1.5 μg) or XCL1-OVA (2.5 μg) vaccibodies or of 20 μl of PBS (control), or. On day 6, mice were injected with CFSE-labeled target cells to quantitate the induced OVA-specific cytotoxicity in vivo (see Materials and Methods). The percent specific lysis is shown for each individual mouse and the mean (horizontal bar) is indicated for each condition. *, p<0.05.
To assess whether the reduction in melanoma tumor growth observed upon treatment with XCL1-OVA vaccibodies was associated with the induction of endogeneous, antigen-specific CD8^+ T cells, wild-type and Xcr1^−/− mice were immunized via laser-assisted intradermal delivery of XCL1-OVA vaccibodies. Six days after immunization, the magnitude of OVA-specific T cell cytotoxicity was measured using an in vivo cytotoxic assay (FIG. 5 C). […] Therefore, laser-assisted, intradermal delivery of XCL1-OVA vaccibodies induced anti-tumoral responses that can be correlated with the presence of OVA-specific IFNgamma^+ T cells in the regressing tumor mass.
Splenocytes from B6 mice were pulsed with the SIINFEKL peptide or left untreated and labeled with low (0.25 mM) or high (2.5 mM) dose of CTV, respectively. […] 36 h later, single-cell suspension were prepared from spleen and the ratio of CTV^high to CTV^low cells was determined by FACS.

[6] = B6 mice, auricular LNs, 3 days after immunisation

Molecule | tumor growth, therapeutic setting [1] | IFN gamma production by CD8+ and CD4+ T cells infiltrating B16-OVA tumor mass [2] | effectiveness at eliciting CD4+ T cell proliferation relative to free OVA, per molecule [3, 6] [times] | effectiveness at eliciting CD8+ T cell proliferation relative to free OVA, per molecule [3, 6] [times] | OT-I and OT-II cell proliferation (CTV dilution) compared with free OVA ([3]; B6 mice, ear-draining auricular LNs, 72 h after laser-assisted delivery, equimolar amounts) | magnitude of OT-I and OT-II proliferation ([3]; Xcr1−/− mice) | proliferation of OT-I and OT-II T cells outside draining LNs ([3]; spleen and LNs that drain territories distinct from the ear, 72 h) | inhibition of B16-OVA tumor growth, XCR1 dependence ([1]; B6 (WT) vs Xcr1−/− mice) | tumor growth, prophylactic setting ([1]; B6 mice immunized 30 days before inoculation, monitored 14 days after inoculation, vs OVA and PBS) | tumor growth, therapeutic setting, high dose vs low dose ([1]; high dose 5.0 μg XCL1-OVA) | tumor growth of B16 melanoma [4] | OVA-specific T cell cytotoxicity in vivo (specific lysis) ([5]; Xcr1−/− mice) | OVA-specific T cell cytotoxicity in vivo ([5]; wild-type mice, six days after immunization, vs PBS treated mice)
ovalbumin [model antigen ovalbumin in free form, equimolar comparator, reference compound] | unable to slow down tumor growth | did not induce IFN[…]^+ T cells over PBS control |  |  |  |  |  |  |  |  |  |  | 
B1 | significantly suppressed tumor growth | capable of producing interferon (IFN) gamma | 3 | 15 | triggered a higher proliferation of OT-I and OT-II cells than free OVA | comparable to that of OVA | showed no sign of proliferation | dependent on the expression of XCR1 | significantly slowed down tumor growth | tumor growth was further reduced | not able to control the growth of B16 melanoma | absence of detectable lysis | induced a significant T cell cytotoxicity

From patent US10828354B2, “Laser-assisted intradermal administration of active substances” (PANTEC BIOSOLUTIONS AG, priority 2015, dated 2020)
